In patent US20230192839A1, “ANTIBODIES HAVING CONDITIONAL AFFINITY AND METHODS OF USE THEREOF” (PFIZER INC., priority 2017, published 2023):
Values belong to the molecule of their own block, whether it stands above or below them.

Experiments:
[1] = test system: human epidermal growth factor receptor (EGFR); assay: Biacore SPR binding kinetics of anti-EGFR scFv-Fc clones with or without 10 µM MTX; conditions: 37° C.; for koff, kinetics toward antigen with 0 µM MTX / kon, kinetics toward antigen with 0 µM MTX / koff, kinetics toward antigen with 10 µM MTX / kon, kinetics toward antigen with 10 µM MTX: pH 7.4, scFv-Fc; for Kd / koff, kinetics toward antigen with 10 µM MTX / kon, kinetics toward antigen with 10 µM MTX: 10 µM MTX; for Kd: pH 7.4, koff/kon, or estimated from binding response / limit of detection for weak interactions, read-out: KD, kinetics toward antigen with 10 µM MTX
Description: All binding kinetics analysis was performed on label-free Biacore surface plasmon biosensors (Biacore T200™ from GE Life Sciences) at 37° C. in 10 mM Hepes pH 7.4, 150 mM NaCl, 0.05% Tween-20 (HBST+), with or without 10 µM MTX. The Biacore data were processed in Biacore T200 Evaluation Software, and the data were double-referenced (Myszka, 1999, J Mol Recognit 12(5):279-284) and fit globally to a simple Langmuir with mass transport model to determine the equilibrium dissociation constant, KD, from the ratio of the kinetic rate constants (KD = koff/kon). In some cases the binding of antigen was very low (or not detectable) in the presence of 10 µM MTX and as a result kinetic rate constants could not be accurately determined. In these cases, a KD (or KD limit) was estimated based on the binding response at the highest analyte concentration tested or based on the typical limit of detection for a Biacore T200. […]

[2] = test system: human CD33; assay: Biacore SPR binding kinetics of anti-CD33 scFv-Fc clones with or without 10 µM MTX; conditions: CD33, 37° C., pH 7.4
Text: The first 4 rounds of panning used biotinylated CD33 antigen captured on streptavidin or neutravidin coated 96-well plates. […] 1536 clones were randomly chosen from the 4th and 5th round of panning against the CD33 antigen and their binding specificity determined by phage ELISA. Clones that specifically bound to CD33 were sequenced and all unique clones were subjected to a phage competition ELISA to assess their relative affinities to CD33 and sensitivity to MTX by measuring their binding strengths in the presence or absence of 10 µM (micromolar) MTX (i.e. in 0 or 10 µM MTX).
All binding kinetics analysis was performed on label-free Biacore surface plasmon biosensors (Biacore T200™ from GE Life Sciences) at 37° C. in 10 mM Hepes pH 7.4, 150 mM NaCl, 0.05% Tween-20 (HBST+), with or without 10 µM MTX. The Biacore data were processed in Biacore T200 Evaluation Software, and the data were double-referenced (Myszka, 1999, J Mol Recognit 12(5):279-284) and fit globally to a simple Langmuir with mass transport model to determine the equilibrium dissociation constant, KD, from the ratio of the kinetic rate constants (KD = koff/kon). In some cases the binding of antigen was very low (or not detectable) in the presence of 10 µM MTX and as a result kinetic rate constants could not be accurately determined. In these cases, a KD (or KD limit) was estimated based on the binding response at the highest analyte concentration tested or based on the typical limit of detection for a Biacore T200.

B2: P02_D08: anti-CD33 clone with conditional affinity; VH SEQ ID NO: 13, VL SEQ ID NO: 14 (antibody, V domains shown)
VH: QVQLVESGGGLVQAGGSLRLSCAASRRSSRSWAMHWVRQAPGKGLEWVAVISYDGRLKYYADSVKGRFTISRDNAEYLVYLQMNSLRAEDTAVYYCAAERGDGLDGNVGLDIWGQGTLVTVSS
VL: DIQMTQSPSSLSASVGDRVTITCRASQSISKYLNWYQQKPGKAPKLLIYGASTLQSGVPSRFSGSGSGTDFTLTISSLQPEDFATYYCQQSYSSGTFGQGTKVEIK
modifications: Synthtic Antibody; Synthetic Antibody
koff, kinetics toward antigen with 0 µM MTX ([2]; scFv-Fc): 0.0061 s⁻¹
kon, kinetics toward antigen with 0 µM MTX ([2]; scFv-Fc): 61000 M⁻¹ s⁻¹
koff, kinetics toward antigen with 10 µM MTX ([2]; 10 µM MTX, scFv-Fc): 0.062 s⁻¹
kon, kinetics toward antigen with 10 µM MTX ([2]; 10 µM MTX, scFv-Fc): 88000 M⁻¹ s⁻¹

B4: P02_E11: anti-CD33 clone with conditional affinity; VH SEQ ID NO: 15, VL SEQ ID NO: 16; also as scFv in CAR (antibody, V domains shown)
VH: QVQLVESGGGLVQAGGSLRLSCAASRRSSRSWAMHWVRQAPGKGLEWVAVISYDGRLKYYADSVKGRFTISRDNAEYLVYLQMNSLRAEDTAVYYCAAEASTDNGLDYWGQGTLVTVSS
VL: DIQMTQSPSSLSASVGDRVTITCRASQTISRHLNWYQQKPGKAPKLLIYSASSLASGVPSRFSGSGSGTDFTLTISSLQPEDFATYYCQQSHSAGTFGQGTKVEIK
modifications: Synthetic Antibody
notes: also as scFv in CAR
koff, kinetics toward antigen with 0 µM MTX ([2]; scFv-Fc): 0.0038 s⁻¹
kon, kinetics toward antigen with 0 µM MTX ([2]; scFv-Fc): 58000 M⁻¹ s⁻¹

B6: P01_B06: anti-EGFR reference clone, less than 2-fold MTX effect; VH SEQ ID NO: 129, VL SEQ ID NO: 130 (antibody, V domains shown)
VH: QVQLVESGGGLVQAGGSLRLSCAASRRSSRSWAMHWVRQAPGKGLEWVAVISYDGRLKYYADSVKGRFTISRDNAEYLVYLQMNSLRAEDTAVYYCAADTSMFASYDPMDVWGQGTLVTVSS
VL: QSVLTQPPSASGTPGQRVTISCSGSSSNIGRNYVNWYQQLPGTAPKLLIYRDDHRPSGVPDRFSGSKSGTSASLAISGLRSEDEADYYCASWDDTLSGWVFGTGTKLTVL
modifications: Synthetic Antibody
koff, kinetics toward antigen with 0 µM MTX [1]: 0.024 s⁻¹
kon, kinetics toward antigen with 0 µM MTX [1]: 100000 M⁻¹ s⁻¹
koff, kinetics toward antigen with 10 µM MTX [1]: 0.026 s⁻¹
kon, kinetics toward antigen with 10 µM MTX [1]: 100000 M⁻¹ s⁻¹

B8: P01_F02: anti-EGFR clone with conditional affinity; VH SEQ ID NO: 119, VL SEQ ID NO: 120; also as scFv in CAR (antibody, V domains shown)
VH: QVQLVESGGGLVQAGGSLRLSCAASRRSSRSWAMHWVRQAPGKGLEWVAVISYDGRLKYYADSVKGRFTISRDNAEYLVYLQMNSLRAEDTAVYYCAADVESALAYGEPYHHMDVWGQGTLVTVSS
VL: QSVLTQPPSASGTPGQRVTISCSGSSSNIGRNYVYWYQQLPGTAPKLLIYRTSQRPSGVPDRFSGSKSGTSASLAISGLRSEDEADYYCATWDDSLSGWVFGTGTKLTVL
modifications: Synthetic Antibody
notes: also as scFv in CAR
koff, kinetics toward antigen with 0 µM MTX [1]: 0.011 s⁻¹
kon, kinetics toward antigen with 0 µM MTX [1]: 61000 M⁻¹ s⁻¹
Kd [1]: > 9.41 µM

Results, then the molecule that gave them:

koff, kinetics toward antigen with 0 µM MTX [1]: 0.27 s⁻¹
kon, kinetics toward antigen with 0 µM MTX [1]: 330000 M⁻¹ s⁻¹
Kd [1]: > 9.37 µM
B1: P07_H08: anti-EGFR clone with conditional affinity; VH SEQ ID NO: 121, VL SEQ ID NO: 122; also as scFv in CAR (antibody, V domains shown)
VH: QVQLVESGGGLVQAGGSLRLSCAASRRSSRSWAMHWVRQAPGKGLEWVAVISYDGRLKYYADSVKGRFTISRDNAEYLVYLQMNSLRAEDTAVYYCAAGFDWGWDSSDIYSAMDYWGQGTLVTVSS
VL: DIQMTQSPSSLSASVGDRVTITCRASQNIGRYLHWYQQKPGKAPKLLIYSASNLQSGVPSRFSGSGSGTDFTLTISSLQPEDFATYYCQQSYSSPFTFGQGTKVEIK
modifications: Synthetic Antibody
notes: also as scFv in CAR

koff, kinetics toward antigen with 0 µM MTX ([2]; scFv-Fc): 0.0094 s⁻¹
kon, kinetics toward antigen with 0 µM MTX ([2]; scFv-Fc): 71000 M⁻¹ s⁻¹
Kd ([2]; 10 µM MTX, koff/kon, or estimated from binding response / limit of detection for weak interactions, read-out: KD, kinetics toward antigen with 10 µM MTX): > 10.9 µM
B3: P03_G12: anti-CD33 clone with conditional affinity; VH SEQ ID NO: 21, VL SEQ ID NO: 22 (antibody, V domains shown)
VH: QVQLVESGGGLVQAGGSLRLSCAASRRSSRSWAMHWVRQAPGKGLEWVAVISYDGRLKYYADSVKGRFTISRDNAEYLVYLQMNSLRAEDTAVYYCAADPTEGWSYLDYWGQGTLVTVSS
VL: DIQMTQSPSSLSASVGDRVTITCRASQGISSYLNWYQQKPGKAPKLLIYGASRLQSGVPSRFSGSGSGTDFTLTISSLQPEDFATYYCQQGYSSGTFGQGTKVEIK
modifications: Synthetic Antibody

koff, kinetics toward antigen with 0 µM MTX ([2]; scFv-Fc): 0.037 s⁻¹
kon, kinetics toward antigen with 0 µM MTX ([2]; scFv-Fc): 28000 M⁻¹ s⁻¹
B5: P02_H01: anti-CD33 clone with conditional affinity; VH SEQ ID NO: 17, VL SEQ ID NO: 18 (antibody, V domains shown)
VH: QVQLVESGGGLVQAGGSLRLSCAASRRSSRSWAMHWVRQAPGKGLEWVAVISYDGRLKYYADSVKGRFTISRDNAEYLVYLQMNSLRAEDTAVYYCAAGSGGGDGLDVWGQGTLVTVSS
VL: DIQMTQSPSSLSASVGDRVTITCRASQTISSYLNWYQQKPGKAPKLLIYSSSTLQGGVPSRFSGSGSGTDFTLTISSLQPEDFATYYCQQSYSSGTFGQGTKVEIK
modifications: Synthetic Antibody

koff, kinetics toward antigen with 0 µM MTX [1]: 0.028 s⁻¹
kon, kinetics toward antigen with 0 µM MTX [1]: 120000 M⁻¹ s⁻¹
koff, kinetics toward antigen with 10 µM MTX [1]: 0.05 s⁻¹
kon, kinetics toward antigen with 10 µM MTX [1]: 87000 M⁻¹ s⁻¹
B7: P05_A11: anti-EGFR clone with conditional affinity; VH SEQ ID NO: 133, VL SEQ ID NO: 134; also as scFv in CAR (antibody, V domains shown)
VH: QVQLVESGGGLVQAGGSLRLSCAASRRSSRSWAMHWVRQAPGKGLEWVAVISYDGRLKYYADSVKGRFTISRDNAEYLVYLQMNSLRAEDTAVYYCAASDDADIFDDYSYGAMDYWGQGTLVTVSS
VL: QSVLTQPPSASGTPGQRVTISCSGSSSNIGRNYVYWYQQLPGTAPKLLIYMTSQRPSGVPDRFSGSKSGTSASLAISGLRSEDEADYYCASWDDNLRAWVFGTGTKLTVL
modifications: Synthetic Antibody
notes: also as scFv in CAR

koff, kinetics toward antigen with 0 µM MTX [1]: 0.00067 s⁻¹
kon, kinetics toward antigen with 0 µM MTX [1]: 110000 M⁻¹ s⁻¹
koff, kinetics toward antigen with 10 µM MTX [1]: 0.00072 s⁻¹
kon, kinetics toward antigen with 10 µM MTX [1]: 29000 M⁻¹ s⁻¹
B9: P14_E03: anti-EGFR clone with conditional affinity; VH SEQ ID NO: 125, VL SEQ ID NO: 126 (antibody, V domains shown)
VH: QVQLVESGGGLVQAGGSLRLSCAASRRSSRSWAMHWVRQAPGKGLEWVAVISYDGRLKYYADSVKGRFTISRDNAEYLVYLQMNSLRAEDTAVYYCAAAPRVDWSDVSSGIDYWGQGTLVTVSS
VL: QSVLTQPPSASGTPGQRVTISCSGSISNIGTNNVYWYQQLPGTAPKLLIYRNNQRPSGVPDRFSGSKSGTSASLAISGLRSEDEADYYCSAWDDSLSGVVFGTGTKLTVL
modifications: Synthetic Antibody
